Test results reported in patent US20210059142.

Experiments:
Experiment in all cases: cell_activity
[1] = test system: FucT1_T01 TAL effector endonuclease, right monomer (engineered); conditions: yeast beta-gal assay of the pair 37 C; 0.6 at 30 C
[2] = test system: XylT_T04 TAL effector endonuclease, left monomer (engineered); conditions: yeast beta-gal assay of the pair 37 C; 0.9 at 30 C; protoplast NHEJ 73.8% XylT1, 63.9% XylT2 (Table 3)
[3] = test system: FucT_T04 TAL effector endonuclease, right monomer (engineered); conditions: yeast beta-gal assay of the pair 37 C; 0.5 at 30 C; same with FucT1 and FucT2 spacers
[4] = test system: XylT_T03 TAL effector endonuclease, right monomer (engineered); conditions: yeast beta-gal assay of the pair 37 C; 0.7 at 30 C; protoplast NHEJ 34.4% XylT1, 28.2% XylT2 (Table 3)
[5] = test system: FucT_T04 TAL effector endonuclease, left monomer (engineered); conditions: yeast beta-gal assay of the pair 37 C; 0.5 at 30 C; same with FucT1 and FucT2 spacers
[6] = test system: XylT_T03 TAL effector endonuclease, left monomer (engineered); conditions: yeast beta-gal assay of the pair 37 C; 0.7 at 30 C; protoplast NHEJ 34.4% XylT1, 28.2% XylT2 (Table 3)
[7] = test system: FucT1_T01 TAL effector endonuclease, left monomer (engineered); conditions: yeast beta-gal assay of the pair 37 C; 0.6 at 30 C
[8] = test system: FucT2_T01 TAL effector endonuclease, right monomer (engineered); conditions: yeast beta-gal assay of the pair 37 C; 0.8 at 30 C
[9] = test system: FucT1_T02 TAL effector endonuclease, right monomer (engineered); conditions: yeast beta-gal assay of the pair 37 C; 0.7 at 30 C; protoplast NHEJ 39.2% FucT1, 24.7% FucT2 (Table 3)
[10] = test system: FucT2_T02 TAL effector endonuclease, right monomer (engineered); conditions: yeast beta-gal assay of the pair 37 C; 0.7 at 30 C; protoplast NHEJ 46.5% FucT1, 45.0% FucT2 (Table 3)
[11] = test system: XylT_T04 TAL effector endonuclease, right monomer (engineered); conditions: yeast beta-gal assay of the pair 37 C; 0.9 at 30 C; protoplast NHEJ 73.8% XylT1, 63.9% XylT2 (Table 3)
[12] = test system: FucT1_T02 TAL effector endonuclease, left monomer (engineered)
[13] = test system: FucT2_T02 TAL effector endonuclease, left monomer (engineered)
[14] = test system: FucT2_T01 TAL effector endonuclease, left monomer (engineered); conditions: yeast beta-gal assay of the pair 37 C; 0.8 at 30 C

Sequence: AATAAGCAATGGCGCAA (double strand) [FucT1_T01 target sequence 2]
- activity (relative to I-SceI) [1]: 0.8

Sequence: TCTCTTCGCTCTCAACT (double strand) [XylT_T04 target sequence 1]
- activity (relative to I-SceI) [2]: 0.9

Sequence: TTTCTGGTTCGACTCGA (double strand) [FucT_T04 target sequence 2]
- activity (relative to I-SceI) [3]: 0.6

Sequence: ATCACTCTCTATCTCTA (double strand) [XylT_T03 target sequence 2]
- activity (relative to I-SceI) [4]: 0.9

Sequence: TTGCCTCTGTTCGTTGC (double strand) [FucT_T04 target sequence 1]
- activity (relative to I-SceI) [5]: 0.6

Sequence: TTCTTGTTTCTCTCTTC (double strand) [XylT_T03 target sequence 1]
- activity (relative to I-SceI) [6]: 0.9

Sequence: TGAGATCGGCGTCAAAT (double strand) [FucT1_T01 target sequence 1]
- activity (relative to I-SceI) [7]: 0.8

Sequence: GATAAACAATGGCGCAA (double strand) [FucT2_T01 target sequence 2]
- activity (relative to I-SceI) [8]: 0.9

Sequence: CTCTGTTCGTTGCCCTA (double strand) [FucT_T02 target sequence 2]
- activity (relative to I-SceI) [9]: 0.9
- activity (relative to I-SceI) [10]: 0.9

Sequence: CTCTACTTCTCTTCCCA (double strand) [XylT_T04 target sequence 2]
- activity (relative to I-SceI) [11]: 0.9

Sequence: TTCAAACGCACCCGATA (double strand) [FucT2_T02 target sequence 1]
- activity ([12]; pair at endogenous FucT2, 1-bp polymorphism in half-site, N. benthamiana protoplasts, control 0.14%): 24.7 % NHEJ
- activity (relative to I-SceI) ([13]; yeast beta-gal assay of the pair 37 C, 0.7 at 30 C, protoplast NHEJ 45.0% at FucT2 (Table 3)): 0.9

Sequence: TTCAAACGCACCCAATA (double strand) [FucT1_T02 target sequence 1]
- activity (relative to I-SceI) ([12]; yeast beta-gal assay of the pair 37 C, 0.7 at 30 C, protoplast NHEJ 39.2% at FucT1 (Table 3)): 0.9
- activity ([13]; pair at endogenous FucT1, 1-bp polymorphism in half-site, N. benthamiana protoplasts, control 0.79%): 46.5 % NHEJ

Sequence: TGAGATCGTCGTCAAAT (double strand) [FucT2_T01 target sequence 1]
- activity (relative to I-SceI) [14]: 0.9
